Source: patent US20150239980A1 (NEOTOPE BOSCIENCES, published 2015)

Tests used:
recombinant hMCAM-His [1] = target: T1, recombinant hMCAM-His (human, UniProt P43121 24-559); experiment: ForteBio Octet Red, hMCAM-His analyte; Expt. #1; vs rodent 1749
T1 construct: not shown: His tag
T1 chain: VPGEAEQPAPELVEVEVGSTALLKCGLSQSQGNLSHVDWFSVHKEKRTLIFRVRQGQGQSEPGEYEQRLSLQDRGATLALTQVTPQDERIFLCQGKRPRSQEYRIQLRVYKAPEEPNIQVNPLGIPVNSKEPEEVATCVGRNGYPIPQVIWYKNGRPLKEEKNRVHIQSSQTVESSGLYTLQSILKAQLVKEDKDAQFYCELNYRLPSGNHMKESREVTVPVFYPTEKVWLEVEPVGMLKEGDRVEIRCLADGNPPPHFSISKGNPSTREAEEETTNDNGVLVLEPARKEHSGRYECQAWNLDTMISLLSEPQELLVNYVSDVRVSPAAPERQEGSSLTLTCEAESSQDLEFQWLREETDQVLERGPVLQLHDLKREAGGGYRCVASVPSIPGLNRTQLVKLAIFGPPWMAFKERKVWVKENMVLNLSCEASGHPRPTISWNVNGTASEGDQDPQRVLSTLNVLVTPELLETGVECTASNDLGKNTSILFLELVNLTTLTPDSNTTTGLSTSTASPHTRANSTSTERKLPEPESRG
Protocol: (§1) The affinities were measured using the ForteBio Octet Red. Anti-human Fc sensors were used to capture the humanized antibodies, and several concentrations of hMCAMHis analyte were used to determine the affinity using a 1:1 fitting model.

recombinant hMCAM-His [2] = target: T1, recombinant hMCAM-His; experiment: ForteBio Octet Red, hMCAM-His analyte; Expt. #2; vs rodent 1749
Protocol: as §1

recombinant hMCAM-His [3] = target: T1, recombinant hMCAM-His; experiment: summary of ForteBio and competitive ELISA on hMCAM-His; vs rodent 1749
Protocol: (§2) ELISA plates were coated with recombinant hMCAM-His, and blocked with casein buffer to prevent non-specific binding. Biotinylated rodent or chimeric antibody was added at a subsaturating concentration, in the presence or absence of 3× increasing concentrations of unlabeled competitor (humanized antibody, rodent, or chimeric). After washing to remove unbound antibody, streptavidin HRP was added to allow detection of the biotinylated antibody. The ELISA was developed with TMB substrate and the OD450 was measured. The IC50 of the unlabeled competitor was determined using the GraphPad Prism5 software.
as §1

recombinant hMCAM-His [4] = target: T1, recombinant hMCAM-His; experiment: ForteBio Octet Red, hMCAM-His analyte; Forte column 1; vs rodent 1749
Protocol: as §1

[5] = target: T2, human MCAM (melanoma cell adhesion molecule) expressed on transfected CHO cells (human, UniProt P43121 24-646); experiment: laminin/FACS on hMCAM CHO cells, competitor laminin 411; Expt#1; vs rodent 1749
T2 construct: also called hMCAM; CD146
T2 chain: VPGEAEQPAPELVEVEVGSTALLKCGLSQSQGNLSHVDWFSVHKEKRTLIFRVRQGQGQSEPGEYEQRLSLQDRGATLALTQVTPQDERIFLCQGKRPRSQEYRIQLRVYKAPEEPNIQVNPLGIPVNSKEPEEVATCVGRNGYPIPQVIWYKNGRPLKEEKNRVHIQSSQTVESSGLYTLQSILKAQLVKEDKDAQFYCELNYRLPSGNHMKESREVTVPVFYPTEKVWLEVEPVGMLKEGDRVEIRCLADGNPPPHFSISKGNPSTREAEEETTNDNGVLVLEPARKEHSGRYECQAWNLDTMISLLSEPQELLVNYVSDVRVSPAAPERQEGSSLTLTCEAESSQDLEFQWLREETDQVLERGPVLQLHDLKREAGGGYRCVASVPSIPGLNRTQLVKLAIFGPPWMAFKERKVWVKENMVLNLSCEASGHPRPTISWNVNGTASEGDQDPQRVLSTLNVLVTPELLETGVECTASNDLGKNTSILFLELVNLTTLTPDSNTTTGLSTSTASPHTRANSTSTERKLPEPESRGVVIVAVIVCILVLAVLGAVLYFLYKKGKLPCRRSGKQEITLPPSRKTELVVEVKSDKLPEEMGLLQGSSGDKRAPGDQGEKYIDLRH
Protocol: (§3) Following incubation for 30-45 minutes, the cells were washed and anti-laminin conjugated to AF650 (NovusBio) was added to detect the bound laminin. The cells were run on a flow cytometer to measure the laminin binding signal.

[6] = target: T2, human MCAM (melanoma cell adhesion …); experiment: laminin/FACS on hMCAM CHO cells, competitor laminin 411; Expt#2; vs rodent 1749
Protocol: as §3

[7] = target: T2, human MCAM (melanoma cell adhesion …); experiment: summary of laminin blocking assay on hMCAM CHO cells, competitor laminin 411; vs rodent 1749
Protocol: as §3

recombinant hMCAM-His [8] = target: T1, recombinant hMCAM-His; experiment: competitive ELISA on hMCAM-His, competitor biotinylated rodent or chimeric 1749; vs rodent 1749
recombinant hMCAM-His [9] = target: T1, recombinant hMCAM-His; experiment: competitive ELISA on hMCAM-His, competitor biotinylated rodent or chimeric 1749; Expt. #1; vs rodent 1749
Protocol: as §2

recombinant hMCAM-His [10] = target: T1, recombinant hMCAM-His; experiment: competitive ELISA on hMCAM-His, competitor biotinylated rodent or chimeric 1749; Expt. #2; vs rodent 1749
Protocol: as §2

recombinant hMCAM-His [11] = target: T1, recombinant hMCAM-His; experiment: ForteBio Octet Red, hMCAM-His analyte; Expt. #1; vs rodent 2107
Protocol: as §1

recombinant hMCAM-His [12] = target: T1, recombinant hMCAM-His; experiment: summary of ForteBio and competitive ELISA on hMCAM-His; vs rodent 2107
Protocol: as §2, §1

[13] = target: T2, human MCAM (melanoma cell adhesion …); experiment: summary of laminin blocking assay on hMCAM CHO cells, competitor laminin 411; vs rodent 2107
Protocol: as §3

recombinant hMCAM-His [14] = target: T1, recombinant hMCAM-His; experiment: competitive ELISA on hMCAM-His, competitor biotinylated rodent or chimeric 2107; Expt. #1; vs rodent 2107
Protocol: as §2

[15] = target: T2, human MCAM (melanoma cell adhesion …); experiment: laminin/FACS blocking assay, % inhibition of laminin 411 binding to hMCAM-expressing CHO cells against antibody concentration; blocked ligand: laminin 411
Protocol: as §3

[16] = target: T3, human MCAM domain 1 (amino acids 19-129), Fc-tagged (human, UniProt P43121 19-129); experiment: ForteBio domain mapping as in Example 8
T3 construct: also called MCAM Fc domain 1
T3 sequence: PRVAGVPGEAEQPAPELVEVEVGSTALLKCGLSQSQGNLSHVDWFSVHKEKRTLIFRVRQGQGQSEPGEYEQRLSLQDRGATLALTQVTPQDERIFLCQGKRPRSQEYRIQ

[17] = target: T4, human MCAM domain 2 (amino acids 139-242), Fc-tagged (human, UniProt P43121 139-242); experiment: ForteBio domain mapping as in Example 8
T4 sequence: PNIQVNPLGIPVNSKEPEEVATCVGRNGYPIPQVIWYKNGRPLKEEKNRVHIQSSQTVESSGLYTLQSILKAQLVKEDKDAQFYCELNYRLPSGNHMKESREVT

[18] = target: T5, Recombinant human Fc-tagged MCAM IgG1-2A (human MCAM domains 1 and 2, amino acids 19-242) (human, UniProt P43121 19-242); experiment: ForteBio domain mapping as in Example 8
T5 construct: also called human MCAM IgG1-2A; MCAM Fc domains 1 and 2; not shown: human Fc tag
T5 sequence: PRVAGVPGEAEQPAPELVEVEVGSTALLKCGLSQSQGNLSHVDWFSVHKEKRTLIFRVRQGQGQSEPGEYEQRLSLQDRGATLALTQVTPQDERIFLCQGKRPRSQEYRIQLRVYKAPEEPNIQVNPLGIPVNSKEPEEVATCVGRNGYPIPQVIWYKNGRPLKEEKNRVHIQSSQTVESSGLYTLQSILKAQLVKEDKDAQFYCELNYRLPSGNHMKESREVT

[19] = target: T6, human MCAM domain 3 (amino acids 244-321), Fc-tagged (human, UniProt P43121 244-321); experiment: ForteBio domain mapping as in Example 8
T6 construct: also called domain 3 of the human MCAM protein
T6 sequence: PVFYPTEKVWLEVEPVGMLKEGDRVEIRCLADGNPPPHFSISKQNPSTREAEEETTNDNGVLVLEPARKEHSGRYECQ

[20] = target: T2, human MCAM (melanoma cell adhesion …); experiment: flow cytometry, human MCAM CHO cells preincubated with antibody, competitor recombinant human laminin 411 at 20 ug/ml
Protocol: The 87 independent mouse fusion clones and 26 independent rat fusion clones described in Example 10 above as being capable of (i) binding to human MCAM, and (ii) blocking the interaction between human MCAM and the α-4 chain of laminin were further characterized as follows. First, IC50 quantitation for the ability of the monoclonal antibody to block the binding of human MCAM to the α-4 chain of laminin was determined as follows. CHO cells expressing human MCAM were incubated with an anti-human MCAM antibody (at various concentrations) for 30 minutes at 4 degrees Celsius. […] Unbound laminin was then washed away, and the laminin bound to the surface of the cells was detected with fluorescently labeled anti-laminin antibodies. After washing, the amount of laminin bound to the surface was detected by flow cytometry, and IC50s were calculated based on the mean fluorescent intensity.
These six anti-MCAM monoclonal antibody clones are herein referred to as (i) the mouse anti-human MCAM monoclonal clones 1174.1.3, 1414.1.2, 1415.1.1, and 1749.1.3, and (ii) the rat anti-human MCAM monoclonal antibody clones 2120.4.19 and 2107.4.10. […] As such, each of these specific monoclonal antibodies was very capable of binding to human MCAM and inhibiting the interaction of cell-expressed human MCAM with its α-4 laminin binding ligand.

B1: h1749VH1 + h1749VL1 (antibody, human IgG1, V domains shown)
VH: EVQLVESGGGLVQPGGSLRLSCAASGFTFSSYIMSWVRQAPGKGLEWVATISSGGSSTYYPDSVKGRFTISRDNAKNSLYLQMNSLRAEDTAVYYCTRDDDYDVKVFAYWGQGTMVTVSS
VL: DIVMTQSPDSLAVSLGERATINCKSSRSLLNSRIRKNYLAWYQQKPGQPPKLLIYWASTRESGVPDRFSGSGSGTDFTLTISSLQAEDVAVYYCKQSYNLLTFGQGTKVEIK
notes: also called humanized 1749 standard VH and VL
- fold over rodent (Forte affinity) (recombinant hMCAM-His [1]): 2.5 fold
- fold over rodent (Forte affinity) (recombinant hMCAM-His [2]): 2.41 fold
- fold reduction in affinity compared to the rodent (recombinant hMCAM-His [3]): < 2 fold
- fold over rodent (Forte affinity) (recombinant hMCAM-His [4]): 2.5 fold
- fold over rodent (blocking, laminin/FACS) [5]: 1.4 fold
- fold over rodent (blocking, laminin/FACS) [6]: 1.4 fold
- fold reduction in potency compared to the rodent [7]: < 2 fold
- fold over rodent (competitive ELISA) (recombinant hMCAM-His [8]): 1 fold
- fold over rodent (competitive ELISA) (recombinant hMCAM-His [9]): 1.26 fold
- fold over rodent (competitive ELISA) (recombinant hMCAM-His [10]): 1.35 fold

B2: h2107_VH3 + h2107_VL2 (antibody, human IgG1, V domains shown)
VH: QVTLKESGPVLVKPTETLTLTCTVSGFSLTSNGVSWVRQPPGKALEWIAAISSGGSTYYNSAFKSRLTISRNTSKSQVVLTMTNMDPVDTATYYCARHRPFYFDYWGQGTLVTVSS
VL: DIQMTQSPSSLSASVGDRVTITCKGSQNIYKSLAWFQLKPGKVPKLLIYDANSLQTGIPSRFSGSGSGTDFTLTISSLQPEDVATYYCQQYYSGYTFGGGTKVEIK
notes: also called VH3VL2
- fold over rodent (Forte affinity) (recombinant hMCAM-His [11]): 2.54 fold
- fold reduction in affinity compared to the rodent (recombinant hMCAM-His [12]): < 3 fold
- fold reduction in potency compared to the rodent [13]: < 3 fold
- fold over rodent (competitive ELISA) (recombinant hMCAM-His [14]): 1.62 fold

B3: chimeric 1749 (antibody, V domains shown)
VH: DVKLVESGGDLVKPGGSLKLSCAASGFTFSSYIMSWVRQTPEKRLEWVATISSGGSSTYYPDSVKGRFTISRDNAKNTLYLQMSSLKSEDTAMYYCTRDDDYDVKVFAYWGQGTLVTVSA
VL: DIVMSQSPSSLAVSAGEKVTMNCKSSRSLLNSRIRKNYLAWYQQKPGQSPKLLIYWASTRESGVPDRFTGSGSGTDFTLTISSVQAEDLAVYYCKQSYNLLTFGAGTKLELK
- fold over rodent (Forte affinity) (recombinant hMCAM-His [2]): 0.79 fold
- fold over rodent (Forte affinity) (recombinant hMCAM-His [4]): 0.6 fold
- fold over rodent (blocking, laminin/FACS) [5]: 1.4 fold
- fold over rodent (blocking, laminin/FACS) [6]: 1.4 fold
- fold over rodent (competitive ELISA) (recombinant hMCAM-His [9]): 0.81 fold
- fold over rodent (competitive ELISA) (recombinant hMCAM-His [10]): 0.97 fold
- IC50 (read off the curve) [15]: ~0.5 µg/mL

B4: mouse anti-human MCAM monoclonal antibody clone 1415.1.1 (antibody, V domains shown)
VH: QVQLQQPGAELVQPGAPVKLSCKASGYIFTSYWMNWVKQRPGRGLEWIGRIDPSDSKIHYNQKFKDKATLTVDRSSSTAYIQLGSLTSEDSAVYYCAKEGGLRRGDYAMDYWGQGTSVTVSS
VL: DIVMTQSPATLSVTPGDRVSLSCRASQSISDYLHWYQQKSHESPRLLIKYASQSISGIPSRFSGSGSGSDFTLSINSVEPEDVGVYYCQNGHNFPRTFGGGTKLEIK
notes: mouse hybridoma antibody
- binding result [16]: no binding
- binding result [17]: no binding
- binding result [18]: no binding
- binding result [19]: binds
- IC50 [20]: 0.307 µg/mL
